From paper PMC10534222

How the values were obtained:
[1] = biological target: FITC-labelled peptide (FITC)…; assay: fluorescence polarisation
[2] = biological target: chicken Tapasin (chTapasin), luminal domain (chicken (Gallus gallus)); assay: NMR titration
[3] = biological target: chicken Tapasin (chTapasin), luminal domain (chicken (Gallus gallus)); assay: SPR

| Substance | Kd [1] [nM] | lifetime of the complex [2] [ms] | Kd [3] [nM] |
| --- | --- | --- | --- |
| empty open B*37:01/chTapasin complex (from UniProt P61769 21-119) | 5.5 | – | – |
| open HLA-B*37:01 (heavy chain G120C, β2m H31C, interchain disulfide), empty (UV-irradiated) (from UniProt P61769 21-119) (complex) | 6.16 | > 200 | 1200 |
